From patent US20230272097A1 (PETMEDIX, published 2023)

T1: canine OX40L, full length membrane form, expressed on the cell surface (HEK293 or MEF cells stably … (canine (dog, beagle)))
T1 construct: The same protein is used on HEK293 and on MEF cells; also called HEK-OX40L; OX40L expressing HEK293 cells
T1 chain: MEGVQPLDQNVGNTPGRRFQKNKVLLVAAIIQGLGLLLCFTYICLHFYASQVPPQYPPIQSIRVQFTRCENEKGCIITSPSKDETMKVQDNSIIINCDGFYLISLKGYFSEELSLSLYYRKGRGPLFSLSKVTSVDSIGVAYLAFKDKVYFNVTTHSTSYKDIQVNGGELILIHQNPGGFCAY


Legend:
[1] = target: T1, canine OX40L, full length membrane …; assay: flow cytometry titration on MEF cells expressing OX40L; Kd (EC50) from GeoMean vs concentration, Prism four parameter fit
Method: FIG. 11. Affinity determination for antibodies that bind OX40L on MEF cells expressing OX40L. Graphs are generated by plotting GeoMean arbitrary units (AU) against Log₁₀ [concentration]. Kd (EC₅₀) was calculated using Prism.
(§1) Specific binding to cells expressing OX40L is confirmed by purifying mAb from the CHO supernatant using protein A resin (MabSelect, Cytiva). In brief, MabSelect resin is washed in PBS and diluted to have a 10% slurry. An appropriate volume of the 10% slurry is added to the supernatant and incubated 5-10′ at RT before being loaded into a filter column. After 3 washes with PBS the antibodies are eluted using IgG elute buffer (Pierce) directly into neutralisation buffer (10 mM TRIS pH8.0), 8:1 IgG elute: neutralisation buffer ratio. Antibody solutions are quantified measuring absorbance at 280 nm, using a Nanodrop One (Thermo Fisher). Serial 1:3 dilutions of purified antibodies ranging from 6.6 μM to 66 pM are prepared in FACS buffer and are used to stain HEK293 or MEF cells (or any other commonly used cell lines) expressing canine OX40L.

[2] = target: T1, canine OX40L, full length membrane …; assay: flow cytometry titration on HEK cells expressing OX40L; Kd (EC50) from GeoMean vs concentration, Prism four parameter fit
Method: (§2) FIG. 10. Affinity determination for antibodies that bind OX40L on HEK cells expressing OX40L. Graphs are generated by plotting GeoMean arbitrary units (AU) against Log₁₀ [concentration]. Kd (EC₅₀) was calculated using Prism.
as §1

[3] = target: T1, canine OX40L, full length membrane …; assay: flow cytometry, single dose, OX40L expressing HEK293 cells against the parental line, fluorescently labelled secondary antibody
Method: CHO cells supernatants containing candidate antibodies are diluted to 1, 5 or 10 μg/ml in FACS buffer (PBS containing 3% FBS) and screened for their ability to bind canine OX40L proteins expressed on cell surface. In brief, HEK293 or MEF cells (or any other commonly used cell lines) expressing canine OX40L at the cell surface are incubated with 100 μl of FACS buffer containing the candidate antibody for 30′ on ice. As a control the parental cell line (HEK293 or MEF cells not expressing OX40L) is also stained with the same antibody solution. After staining, cells are washed with 150 μl FACS buffer followed by centrifugation at 300 g for 3 min. Supernatant is removed, and the cell pellet is resuspended in FACS buffer containing a 1:1000 dilution of a fluorescently labelled secondary antibody recognising the human or canine Fc region of the test antibody for 30 min in the dark, followed by washing with 150 μl FACS buffer and centrifugation at 300 g for 3 mins. Cells are resuspended in FACS buffer and flow cytometry performed using either a […] cytometer, followed by data analysis using FlowJo (FIG. 8).

[4] = target: T1, canine OX40L, full length membrane …; assay: flow cytometry titration on HEK cells expressing OX40L; Kd (EC50), Prism
Method: as §2, with “FIG. 12.” for “FIG. 10.”, “OX40L formulated in canine IgGB Def2 and Def7 backbones. The experiment was performed using” for “OX40L on”, “(AU) values” for “(AU)”
as §1

Row | Binder | Kd [1] [nM] | Kd [2] [nM] | binding result [3] | Kd [4] [nM]
1 | PMX019 (antibody, V domains shown, Canine variable regions; also called PMX19) VH: EVQLVESGGDLVKPGGSLRLSCVASGFTFSSNYMSWIRQAPGKGLQWVSQISGDGIYTNYADAMKGRFTISRDNAKNTLYLQMNSLRDEDTALYYCATGIYPNAFGYWGQGTLVTVSS VL: SYVLTQLSSKNVTLKQPAHITCGGDNIGSKSVHWYQQKLGQAPVLIIYYDSSRPTGIPERFSGANSGNTATLTISGALAEDEADYYCQVWDSSANVFGGGTHLTVL | 38.3 | 4.49 |  | 
2 | PMX 024 (antibody, V domains shown, anti-canine OX40L candidate) VH: EVLLMESGGDLVKPGGSLRLSCVASGFTFSSNYMYWIRQAPGKGLQWVSQISGDGSFTNYADAVKGRFTISRDNAKNTLYLQMNSLRDEDTAVFYCASGIYPNAFGYWGQGTLVTVSS VL: SYVLTQPPSKNVTLKQPAHITCGGDNIGSKSVHWYQQKLGQAPVLIIYYDSSRPTGIPERFSGANSGNTATLTISGALAEDEADYYCQVRDSSANVFGGGTHLTVL |  |  | binds | 
3 | PMX016 (antibody, V domains shown, Canine variable regions) VH: EVQLVESGGDLVKPGGSLRLSCVASGFTFSNYHMNWVRQAPGKGLQWVAYITSDGIVSSYADVVKGRFTISRDNAKNTLFLQMNSLRAEDTAVYYCASGLFLVVGGGTFWGQGTLVTVSS VL: SYVLTQLPSKNVTLKQPAHITCGGDNIGSKSVHWYQQKLGQAPVLIIYSDSSRPTGIPERFSGANSGNTATLTISGALAEDEADYYCQVWDSSAKASVFGGGTHLTVL | 108 | 37.4 |  | 
4 | PMX018 (antibody, V domains shown, Canine variable regions) VH: EVQLVESGGDLVKPGGSLRLSCVASGFTFSNYHMNWVRQAPGKGLQWVAYITNDGIVSSYADAVKGRFTISRDNAKNTLYLQMNSLRVEDTAVYYCASGLFLVVGGGTFWGQGTLVTVSS VL: SYVLTQLPSKNVTLKQPAHITCGGDNIGSKSVHWYQHKLGQAPVLIIYYDSSRPTGIPERFSGANSGNTATLTISGALAEDEADYYCQVWDSSAKASVFGGGTHLTVL |  | 23.6 |  | 
5 | PMX017 (antibody, V domains shown, Canine variable regions) V domain 1: EVQLVESGGDLVKPGGSLRLSCVASGFTFSSYHMSWVRQAPGKGLQWVAYIASGGTVTTYADAVRGRFTISRDNAKNMLYLQMNSLRAEDSAVYYCTRWKGGTFGYGMDYWGHGTSLFVSS V domain 2: SYVLTQLPSKNVTLKQPAHITCGGDNIGSKSVHWYQQKLGQAPVLIIYYDNNRPAGIPERFSGANSGNTATLTISGALAEDEADYYCQVWDSSAKASVFGGGTHLTVL | 10.7 | 30 |  | 
6 | PMX020 (antibody, V domains shown, Canine variable regions) VH: EVQLVESGGDLVKPGGSLRISCVASGFTFSSYHMNWVRQAPGKGLQWVAHISSGGTFTSYADAVKGRFTISRDNAKNTLYLQMISLRAEDTAVYYCASGLFLVVGGGNYWGRGTLVTVSS VL: SYVLTQLPSKNVTLKQPAHITCGGDNIGSKSVHWYQQKLGQAPVLIIYSDSSRPTGIPERFSGANSGNTATLTISGALAEDEADYYCQVWDSSASVFGGGTHLTVL | 0.71 | 2.8 |  | 
7 | PMX014 formulated in canine IgGB Def2 backbone (antibody, also called PMX014 Def2; not shown: light chain constant region (human kappa, or canine kappa or lambda)) heavy: EVQLVESGGDLVKPGGSLRLSCVASGFTFSNFHMSWVRQAPGKGLQWVAYINSGGFNINYEDAVRGRFTISRDNAKNTLYLQMNSLRAEDTAIYYCARDWDTHLDTNWFYYWGQGTLVTVSSASTTAPSVFPLAPSCGSTSGSTVALACLVSGYFPEPVTVSWNSGSLTSGVHTFPSVLQSSGLYSLSSMVTVPSSRWPSETFTCNVAHPASKTKVDKPVPKRENGRVPRPPDCPKCPAPESLGGPSVFIFPPKPKDTLLIARTPEVTCVVVDLGREDPEVQISWFVDGKQMQTAKTQPREEQFNGTYRVVSVLPIGHQDWLKGKQFTCKVNHIGLPSPIERTISKARGQAHQPSVYVLPPSREELSKNTVSLTCLIKDFFPPDIDVEWQSNGQQEPESKYRTTPPQLDEDGSYFLYSKLSVDKSRWQRGDTFICAVMHEALHNHYTQKSLSHSPGK light: SYVLTQLPSKNVTLKQSAHITCRGDNIGSKSVHWYQQKLGQAPVLIIYYDSSRPTGIPERFSGANSGNTATLTISGALAEDEADYYCQVWDISAKASVFGGGTHLTVL |  |  |  | 74.6
8 | PMX014 formulated in canine IgGB Def7 backbone (antibody, also called PMX014 Def7; not shown: light chain constant region (human kappa, or canine kappa or lambda)) heavy: EVQLVESGGDLVKPGGSLRLSCVASGFTFSNFHMSWVRQAPGKGLQWVAYINSGGFNINYEDAVRGRFTISRDNAKNTLYLQMNSLRAEDTAIYYCARDWDTHLDTNWFYYWGQGTLVTVSSASTTAPSVFPLAPSCGSTSGSTVALACLVSGYFPEPVTVSWNSGSLTSGVHTFPSVLQSSGLYSLSSMVTVPSSRWPSETFTCNVAHPASKTKVDKPVPKRENGRVPRPPDCPKCPAPEAAGGPSVFIFPPKPKDTLLIARTPEVTCVVVDLDPEDPEVQISWFVDGKQMQTAKTQPREEQFNGTYRVVSVLPIGHQDWLKGKQFTCKVNNKALGSPIERTISKARGQAHQPSVYVLPPSREELSKNTVSLTCLIKDFFPPDIDVEWQSNGQQEPESKYRTTPPQLDEDGSYFLYSKLSVDKSRWQRGDTFICAVMHEALHNHYTQKSLSHSPGK light: SYVLTQLPSKNVTLKQSAHITCRGDNIGSKSVHWYQQKLGQAPVLIIYYDSSRPTGIPERFSGANSGNTATLTISGALAEDEADYYCQVWDISAKASVFGGGTHLTVL |  |  |  | 74.2
9 | PMX020 formulated in canine IgGB Def2 backbone (antibody, also called PMX020 Def2; not shown: light chain constant region (human kappa, or canine kappa or lambda)) heavy: EVQLVESGGDLVKPGGSLRISCVASGFTFSSYHMNWVRQAPGKGLQWVAHISSGGTFTSYADAVKGRFTISRDNAKNTLYLQMISLRAEDTAVYYCASGLFLVVGGGNYWGRGTLVTVSSASTTAPSVFPLAPSCGSTSGSTVALACLVSGYFPEPVTVSWNSGSLTSGVHTFPSVLQSSGLYSLSSMVTVPSSRWPSETFTCNVAHPASKTKVDKPVPKRENGRVPRPPDCPKCPAPESLGGPSVFIFPPKPKDTLLIARTPEVTCVVVDLGREDPEVQISWFVDGKQMQTAKTQPREEQFNGTYRVVSVLPIGHQDWLKGKQFTCKVNHIGLPSPIERTISKARGQAHQPSVYVLPPSREELSKNTVSLTCLIKDFFPPDIDVEWQSNGQQEPESKYRTTPPQLDEDGSYFLYSKLSVDKSRWQRGDTFICAVMHEALHNHYTQKSLSHSPGK light: SYVLTQLPSKNVTLKQPAHITCGGDNIGSKSVHWYQQKLGQAPVLIIYSDSSRPTGIPERFSGANSGNTATLTISGALAEDEADYYCQVWDSSASVFGGGTHLTVL |  |  |  | 45.4
10 | PMX020 formulated in canine IgGB Def7 backbone (antibody, also called PMX020 Def7; not shown: light chain constant region (human kappa, or canine kappa or lambda)) heavy: EVQLVESGGDLVKPGGSLRISCVASGFTFSSYHMNWVRQAPGKGLQWVAHISSGGTFTSYADAVKGRFTISRDNAKNTLYLQMISLRAEDTAVYYCASGLFLVVGGGNYWGRGTLVTVSSASTTAPSVFPLAPSCGSTSGSTVALACLVSGYFPEPVTVSWNSGSLTSGVHTFPSVLQSSGLYSLSSMVTVPSSRWPSETFTCNVAHPASKTKVDKPVPKRENGRVPRPPDCPKCPAPEAAGGPSVFIFPPKPKDTLLIARTPEVTCVVVDLDPEDPEVQISWFVDGKQMQTAKTQPREEQFNGTYRVVSVLPIGHQDWLKGKQFTCKVNNKALGSPIERTISKARGQAHQPSVYVLPPSREELSKNTVSLTCLIKDFFPPDIDVEWQSNGQQEPESKYRTTPPQLDEDGSYFLYSKLSVDKSRWQRGDTFICAVMHEALHNHYTQKSLSHSPGK light: SYVLTQLPSKNVTLKQPAHITCGGDNIGSKSVHWYQQKLGQAPVLIIYSDSSRPTGIPERFSGANSGNTATLTISGALAEDEADYYCQVWDSSASVFGGGTHLTVL |  |  |  | 58.1
11 | PMX013 (antibody, V domains shown, Canine variable regions) VH: ELTLQESGPGLVKPSQTLSLTCVVSGGSVTSSHYWNWIRQRPGRGLEWMGSWTGGTNYNPAFQGRISVTSDTAKNQFSLQLSSLTTEDTAVYYCARGGGYSGTWKDYYVMDYWGHGTSVIVSS VL: SYVLTQLPSKNVTLNQPAHITCGGDNLGSKSVHWYQQKLGQAPVLIIYFDTSRPTGIPERFSGANSGNTATLTISGALAEDEADYYCQVWDSSAKASVFGGGTHLTVL | 22.7 | 165 |  | 
